Results on 4 molecules are retold here after article PMC10794152 (2023).

To fix the notation:
B1: full-length human basigin (receptor)
chain: AAGTVFTTVEDLGSKILLTCSLNDSATEVTGHRWLKGGVVLKEDALPGQKTEFKVDSDDQWGEYSCVFLPEPMGTANIQLHGPPRVKAVKSSEHINEGETAMLVCKSESVPPVTDWAWYKITDSEDKALMNGSESRFFVSSSQGRSELHIENLNMEADPGQYRCNGTSSKGSDQAIITLRVRSHLAALWPFLGIVAEVLVLVTIIFIYEKRRKPEDVLDDDDAGSAPLKSSGQHQNDKGKNVRQRNSS
modifications: labelled with Alexa Fluor 488 (protein-labelling kit)
B2: PfRH5 (natural protein)
chain: ENAIKKTKNQENNLTLLPIKSTEEEKDDIKNGKDIKKEIDNDKENIKTNNAKDHSTYIKSYLNTNVNDGLKYLFIPSHNSFIKKYSVFNQINDGMLLNEKNDVKNNEDYKNVDYKNVNFLQYHFKELSNYNIANSIDILQEKEGHLDFVIIPHYTFLDYYKHLSYNSIYHKSSTYGKYIAVDAFIKKINEAYDKVKSKCNDIKNDLIATIKKLEHPYDINNKNDDSYRYDISEEIDDKSEETDDETEEVEDSIQDTDSNHTPSNKKKNDLMNRAFKKMMDEYNTKKKKLIKCIKNHENDFNKICMDMKNYGTNLFEQLSCYNNNFCNTNGIRYHYDEYIHKLILSVKSKNLNKDLSDMTNILQQSELLLTNLNKKMGSYIYIDTIKFIHKEMKHIFNRIEYHTKIINDKTKIIQDKIKLNIWRTFQKDELLKRILDMSNEYSLFITSDHLRQMLYNTFYSKEKHLNNIFHHLIYVLQMKFNDVPIKMEYFQTYKKNKPLTQ
B3: basigin ectodomain (domain or fragment)
chain: AAGTVFTTVEDLGSKILLTCSLNDSATEVTGHRWLKGGVVLKEDALPGQKTEFKVDSDDQWGEYSCVFLPEPMGTANIQLHGPPRVKAVKSSEHINEGETAMLVCKSESVPPVTDWAWYKITDSEDKALMNGSESRFFVSSSQGRSELHIENLNMEADPGQYRCNGTSSKGSDQAIITLRVRSHLAAL
modifications: labelled with Alexa Fluor 488 (protein-labelling kit)
B4: PfCSS–PfPTRAMP heterodimer (complex)
chain 1: QDEKSVKNICVCDFTDKLNFLPLEKTKILCELKPQYGEDIKIIANKEYEINCMNNSKVFCPLKDTFINNTNIKLYSPKLHFEIKDITHKGKNAALYYLKIDEEASDIFFSCSIKPKQVSGLLEGEVRVNLKKHINEEYSIFNEEEDVHVCDFSKGNLDITPSAGFYLKNSRNVSCIYRVIPNKLFLIKLPKLDIVTEKLLPSIVNCLSEFSFINFTLKHVQEGDNYISFNVIFGEFKKHFNLTCSLDLSDFQQEPCNLGKTANITFIFSK
chain 2: CNLKVRNNWEHFLQVYQNNGNFKMEILEPECTIQKNLPSEEEKEEFIDFDRKELLLHDFVVIKNSQFTDEKTLELYLSKEENNKSYLMLTFYLGDLKLMIGHNSPYEISLILNVATVNKNMSNCKNNSYNIVLLKTTDVFNTSDLEILEGPIQFSLGKSSGAFRINVTNFFLNNTWKAFTKDKISFLIKPEENCYTILENKINKPQLLIEKKTTFYSEWGEWSNCSMDCDHPDNVQIRERECIHPSGDCFKGDLKESRPCIIPLPPCNELFSHKDNST

In test [1] the target is T1, PfRCR complex (P. falciparum, UniProt Q8IFM8;O97302). The test can be described thus: MST; replicate 1.
The target of test [2] is T1, PfRCR complex. The test can be described thus: MST; replicate 2.
Test [3] deals with B1. The test can be described thus: MST; replicate 2.
The target in test [4] is B3. The test can be described thus: MST; replicate 2.
The target in test [5] is T2, PfRIPR tail (P. falciparum, UniProt O97302 717-1086, N964Q | N1021Q). The test can be described thus: SPR; replicate 1.
The target in test [6] is T3, PfRIPR (P. falciparum, UniProt O97302 21-1086). The test can be described thus: SPR; replicate 1.
The target in test [7] is T2, PfRIPR tail. The test can be described thus: SPR; replicate 2.
The target of test [8] is T2, PfRIPR tail. The test can be described thus: SPR; replicate 4.
In test [9] the target is T3, PfRIPR. The test can be described thus: SPR; replicate 4.

On to B1, for which the values for the Kd in test [1] and in [2] were 149 nM and 181 nM, respectively.

For B2, the values for the Kd in test [3] and in [4] were 171 nM and 151 nM, respectively.

On to B3, for which the Kd in [1] worked out at 125 nM; in test [2], 184 nM.

B4: the Kd stood at 2790 nM in [5]; 2970 nM in [6]; 5370 nM in test [7]; 4900 nM in [8]; 4320 nM in [9].
